Experimental data from doi:10.1101/2022.07.24.501275.

Legend:
Experiment in all cases: SPR
[1] = biological target: 16A Fab R32G (mouse | human)
[2] = biological target: 14A Fab G32R (mouse | human)
[3] = biological target: 16A Fab W34F (mouse | human)

Substance: MUC1 glycopeptide RPAPGS(Tn)TAPPAHG
- KD(peptide)/KD(GalNAc-S) [1]: 1.9 fold
- Kd [2]: 128 nM

Substance: MUC1 glycopeptide RPAPGST(Tn)APPAHG
- KD(peptide)/KD(GalNAc-T) [3]: 2.8 fold
